Measurements taken from patent US7033991.
Like-named read-outs stand apart in the source and are kept apart here. No end group written: not given here.

Assays:
Settings in all cases: modification not given
PC7, Q16549 = biological target: T1, PC7, Q16549
T1 chain: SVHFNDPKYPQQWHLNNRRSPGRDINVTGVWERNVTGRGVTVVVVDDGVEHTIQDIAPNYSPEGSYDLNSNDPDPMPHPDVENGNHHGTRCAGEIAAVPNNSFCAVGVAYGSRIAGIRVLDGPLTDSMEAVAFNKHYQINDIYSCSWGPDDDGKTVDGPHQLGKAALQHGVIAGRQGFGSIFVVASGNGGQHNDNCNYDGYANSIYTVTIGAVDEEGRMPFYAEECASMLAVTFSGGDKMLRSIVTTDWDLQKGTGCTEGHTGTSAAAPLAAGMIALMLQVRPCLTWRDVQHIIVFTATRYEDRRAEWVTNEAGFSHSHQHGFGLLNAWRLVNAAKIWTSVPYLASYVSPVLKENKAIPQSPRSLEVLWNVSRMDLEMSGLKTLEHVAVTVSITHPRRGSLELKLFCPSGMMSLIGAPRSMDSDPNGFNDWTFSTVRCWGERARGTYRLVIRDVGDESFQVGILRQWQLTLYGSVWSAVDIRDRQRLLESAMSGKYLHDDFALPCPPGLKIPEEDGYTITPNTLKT

PC2, P16519 [1] = biological target: T2, PC2, P16519
T2 chain: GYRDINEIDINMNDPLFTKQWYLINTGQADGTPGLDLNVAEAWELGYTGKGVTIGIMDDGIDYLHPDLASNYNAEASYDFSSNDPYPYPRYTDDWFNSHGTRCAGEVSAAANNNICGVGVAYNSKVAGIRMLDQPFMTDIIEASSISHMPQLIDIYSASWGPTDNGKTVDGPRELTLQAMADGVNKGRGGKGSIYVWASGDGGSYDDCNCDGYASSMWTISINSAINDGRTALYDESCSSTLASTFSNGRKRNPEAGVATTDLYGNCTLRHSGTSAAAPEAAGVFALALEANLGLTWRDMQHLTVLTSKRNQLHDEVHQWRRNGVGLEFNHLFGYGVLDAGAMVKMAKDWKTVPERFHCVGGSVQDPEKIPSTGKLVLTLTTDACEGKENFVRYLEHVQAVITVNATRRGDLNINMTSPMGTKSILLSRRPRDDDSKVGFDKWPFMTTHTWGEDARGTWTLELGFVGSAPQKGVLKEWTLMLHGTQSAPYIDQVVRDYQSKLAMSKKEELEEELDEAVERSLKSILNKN

[2] = biological target: T3, Furin (recombinant, truncated) (mouse), P23188
T3 chain: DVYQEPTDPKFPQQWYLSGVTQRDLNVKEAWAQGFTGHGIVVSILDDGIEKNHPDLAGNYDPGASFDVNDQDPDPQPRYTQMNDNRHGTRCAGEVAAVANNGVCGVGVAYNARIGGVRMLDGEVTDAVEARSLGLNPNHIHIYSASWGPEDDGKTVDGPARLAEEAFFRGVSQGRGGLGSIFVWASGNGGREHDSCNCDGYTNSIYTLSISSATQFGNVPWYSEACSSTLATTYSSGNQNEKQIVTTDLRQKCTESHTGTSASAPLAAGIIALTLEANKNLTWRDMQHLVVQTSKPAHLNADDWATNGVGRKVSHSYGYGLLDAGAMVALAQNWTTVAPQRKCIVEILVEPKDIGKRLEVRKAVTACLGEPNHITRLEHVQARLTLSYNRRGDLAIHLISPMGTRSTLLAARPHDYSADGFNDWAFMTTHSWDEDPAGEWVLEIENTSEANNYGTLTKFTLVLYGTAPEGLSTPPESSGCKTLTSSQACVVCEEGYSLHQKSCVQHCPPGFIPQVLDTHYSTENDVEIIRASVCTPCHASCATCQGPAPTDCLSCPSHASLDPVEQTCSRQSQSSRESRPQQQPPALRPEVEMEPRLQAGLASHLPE

[3] = biological target: T3, Furin (recombinant, truncated) (mouse), …
PC2, P16519 [4] = biological target: T2, PC2, P16519
PC1, P29120 [5] = biological target: T4, PC1, P29120
T4 chain: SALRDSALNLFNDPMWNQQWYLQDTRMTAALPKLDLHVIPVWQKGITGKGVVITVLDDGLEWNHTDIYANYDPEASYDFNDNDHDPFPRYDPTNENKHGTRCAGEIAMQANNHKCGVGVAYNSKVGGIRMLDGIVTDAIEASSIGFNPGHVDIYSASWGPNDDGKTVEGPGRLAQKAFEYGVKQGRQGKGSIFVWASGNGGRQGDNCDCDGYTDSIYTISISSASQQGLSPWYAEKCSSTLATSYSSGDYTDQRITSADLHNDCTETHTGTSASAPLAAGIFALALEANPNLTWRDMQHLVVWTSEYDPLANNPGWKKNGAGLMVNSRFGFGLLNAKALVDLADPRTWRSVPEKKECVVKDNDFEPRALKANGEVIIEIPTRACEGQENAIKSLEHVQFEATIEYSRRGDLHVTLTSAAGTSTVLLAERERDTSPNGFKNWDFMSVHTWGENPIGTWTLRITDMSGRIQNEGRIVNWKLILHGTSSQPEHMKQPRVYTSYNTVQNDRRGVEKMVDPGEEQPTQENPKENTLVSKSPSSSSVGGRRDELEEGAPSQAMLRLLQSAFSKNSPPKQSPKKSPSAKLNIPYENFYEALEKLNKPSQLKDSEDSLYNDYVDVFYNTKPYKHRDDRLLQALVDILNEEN

PACE4, P29122 [6] = biological target: T5, PACE4, P29122
T5 chain: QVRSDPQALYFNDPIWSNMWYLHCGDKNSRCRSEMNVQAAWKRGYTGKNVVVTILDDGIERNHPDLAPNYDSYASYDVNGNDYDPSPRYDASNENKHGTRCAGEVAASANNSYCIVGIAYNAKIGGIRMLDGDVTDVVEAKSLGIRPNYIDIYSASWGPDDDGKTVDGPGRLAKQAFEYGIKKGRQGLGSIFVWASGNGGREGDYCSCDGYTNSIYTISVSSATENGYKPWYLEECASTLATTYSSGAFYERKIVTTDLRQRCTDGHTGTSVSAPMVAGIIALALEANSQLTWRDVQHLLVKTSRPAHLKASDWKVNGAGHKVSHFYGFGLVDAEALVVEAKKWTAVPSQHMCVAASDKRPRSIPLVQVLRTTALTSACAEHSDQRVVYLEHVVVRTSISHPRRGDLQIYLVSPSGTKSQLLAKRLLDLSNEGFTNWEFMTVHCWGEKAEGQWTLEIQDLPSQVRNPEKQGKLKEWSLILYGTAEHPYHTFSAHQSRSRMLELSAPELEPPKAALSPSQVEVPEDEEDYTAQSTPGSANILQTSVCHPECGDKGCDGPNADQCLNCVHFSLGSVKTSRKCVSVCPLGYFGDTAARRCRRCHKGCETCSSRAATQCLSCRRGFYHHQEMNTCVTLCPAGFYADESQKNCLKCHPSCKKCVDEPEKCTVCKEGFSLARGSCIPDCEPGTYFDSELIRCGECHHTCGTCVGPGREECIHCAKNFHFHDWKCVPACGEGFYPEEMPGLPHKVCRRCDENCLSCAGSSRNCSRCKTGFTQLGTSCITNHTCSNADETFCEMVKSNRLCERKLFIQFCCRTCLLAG

[7] = biological target: T3, Furin (recombinant, truncated) (mouse), …
[8] = biological target: T3, Furin (recombinant, truncated) (mouse), …
PC1, P29120 [9] = biological target: T4, PC1, P29120
PACE4, P29122 [10] = biological target: T5, PACE4, P29122
PACE4, P29122 [11] = biological target: T5, PACE4, P29122
[12] = biological target: T3, Furin (recombinant, truncated) (mouse), …
PC1, P29120 [13] = biological target: T4, PC1, P29120
[14] = biological target: T3, Furin (recombinant, truncated) (mouse), …
PC2, P16519 [15] = biological target: T2, PC2, P16519
[16] = biological target: T3, Furin (recombinant, truncated) (mouse), …
PC2, P16519 [17] = biological target: T2, PC2, P16519
PC2, P16519 [18] = biological target: T2, PC2, P16519
[19] = biological target: T3, Furin (recombinant, truncated) (mouse), …

For QQVAKRRTKR [Furin propeptide fragment], the Ki (PC7, Q16549) was 0.5 µM.

Ac-HHKRRR-NH2 [Ac-HHKRRR-NH2] was tested, and the Ki (PC2, P16519 [1]) was 235 µM and the Ki [2] was 13.2 µM.

LLRVKR showed a Ki [3] of 0.42 µM and a Ki (PC2, P16519 [4]) of 3.7 µM.

Binder RRRRRRR [Hepta-L-arginine] has a Ki (PC1, P29120 [5]) of 5.2 µM, a Ki (PACE4, P29122 [6]) of 0.24 µM and a Ki [7] of 0.068 µM.

RRRRRR [Hexa-L-arginine] showed a Ki [8] of 0.114 µM, a Ki (PC1, P29120 [9]) of 3.9 µM and a Ki (PACE4, P29122 [10]) of 0.52 µM.

For RRRR [Tetra-L-arginine], the Ki (PACE4, P29122 [11]) was > 200 µM, the Ki [12] was 6.4 µM and the Ki (PC1, P29120 [13]) was > 200 µM.

LLRVKR-NH2 [LLRVKR-NH2] was tested, and the Ki [14] was 0.8 µM and the Ki (PC2, P16519 [15]) was 2.3 µM.

Work on Ac-MRKRRR-NH2 [Ac-MRKRRR-NH2] yielded a Ki [16] of 2.3 µM and a Ki (PC2, P16519 [17]) of 1500 µM.

Ac-MHKRRR-NH2 [Ac-MHKRRR-NH2] gave a Ki (PC2, P16519 [18]) of 216 µM and a Ki [19] of 10.3 µM.
